The results in this text go back to ChEMBL document CHEMBL1121725, “Interaction of 1-(5-phospho-beta-D-arabinofuranosyl)-5-substituted-uracils with thymidylate synthetase: mechanism-based inhibition by 1-(5-phospho-beta-D-arabinosyl)-5-fluorouracil” (J Med Chem, 1981).

The target of the series is thymidylate synthase (Lactobacillus casei). Nature of the series: Compound was evaluated for the inhibition of dTMP synthetase with respect to dUMP.

B1: Thymidylate synthase (Escherichia coli), C3SWJ7 (protein)
chain: MKQYLELMQKVLDEGTQKNDRTGTGTLSIFGHQMRFNLQDGFPLVTTKRCHLRSIIHELLWFLQGDTNIAYLHENNVTIWDEWADENGDLGPVYGKQWRAWPTPDGRHIDQITTVLNQLKNDPDSRRIIVSAWNVGELDKMALAPCHAFFQFYVADGKLSCQLYQRSCDVFLGLPFNIASYALLVHMMAQQCDLEVGDFVWIGGDTHLYSNHMDQTHLQLSREPRPLPKLIIKRKPESIFDYRFEDFEIEGYDPHPGIKAPVAI
What is called Km is the concentration of substrate that gives half-maximal velocity. Consider B1, for which the Km was determined as 2 µM.
